Source: PMC8727134

B1: MT2 (dsDNA)
DNA 1: AGCTCCGTTATAGAAT
DNA 2: ATTCTATAACGGAGCT
B2: WT2 (dsDNA)
DNA 1: AGCTCTGTGGTAGAAT
DNA 2: ATTCTACCACAGAGCT
B3: MT1 (dsDNA)
DNA 1: GAAAAATAACGTATGG
DNA 2: CCATACGTTATTTTTC

Biological target: RUNX1 Runt domain (His6-RUNX1);CBFbeta (His6-CBFβ) (mouse;mouse, UniProt Q03347;Q08024 24-189;1-187, |)
Experiment: EMSA

RUNX1 Runt domain (His6-RUNX1);CBFbeta (His6-CBFβ), sequence (Q03347 24-189, chain 1 of 2): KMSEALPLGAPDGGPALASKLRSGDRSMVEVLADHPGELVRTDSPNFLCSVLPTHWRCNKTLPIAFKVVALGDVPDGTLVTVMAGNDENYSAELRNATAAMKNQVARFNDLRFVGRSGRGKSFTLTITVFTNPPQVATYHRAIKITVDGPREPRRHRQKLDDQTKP
RUNX1 Runt domain (His6-RUNX1);CBFbeta (His6-CBFβ), sequence (Q08024 whole entry, chain 2 of 2, the tested form may be a part): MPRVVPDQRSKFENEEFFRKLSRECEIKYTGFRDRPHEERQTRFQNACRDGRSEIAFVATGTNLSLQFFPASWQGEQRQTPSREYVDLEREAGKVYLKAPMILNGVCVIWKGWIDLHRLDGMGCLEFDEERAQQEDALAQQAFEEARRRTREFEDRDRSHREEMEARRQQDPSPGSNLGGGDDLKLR

Row | Binder | binding result
1 | B1 | no binding
2 | B2 | no binding
3 | B3 | no binding
